Changes are numbered by the printed parent chain. Names and notes keep the numbering of the source.
Tests used:
[1] = target: T1, human Fibroblast Activation Protein (FAP), recombinant (human, UniProt Q12884 27-760); test: SPR (Biacore), His-tagged human FAP captured by anti-His antibody, antibody as analyte, 25 C; apparent bivalent affinity (avidity), 1:1 fit
T1 construct: they are treated as one molecule; also called Hu FAP; huFAP
Procedure: The FAP binding activity of the IgG-IL-2 qm immunoconjugates based on 4G8 and 28H1 anti-FAP antibodies were determined by surface plasmon resonance (SPR) on a Biacore machine in comparison to the corresponding unmodified IgG antibodies. […] Temperature was 25° C. and HBS-EP was used as buffer. Analyte concentration was 50 nM down to 0.05 nM at a flow rate of 50 μl/min (association: 300 s, dissociation: 900 s, regeneration: 60 s with 10 mM glycine pH 2). Fitting was performed based on a 1:1 binding model, RI=0, Rmax=local (because of capture format).

[2] = target: T2, human A2 domain of Tenascin-C (TNC A2), recombinant (human, UniProt P24821 1167-1256, limits assumed, biotinylated via a C-terminal avi-tag (Example 5)); test: SPR (ProteOn XPR36), NLC chip, biotinylated TNC A2 as ligand (250 RU), construct as analyte, 1:1 global fit; human TNC A2 as ligand
T2 construct: domain: A2 domain of Tenascin-C; also called human TNC A2
T2 sequence (looked up): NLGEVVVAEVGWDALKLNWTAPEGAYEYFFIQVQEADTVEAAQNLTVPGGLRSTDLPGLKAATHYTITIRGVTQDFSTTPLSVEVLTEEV

[3] = target: T1, human Fibroblast Activation Protein …; test: SPR (ProteOn XPR36), GLM chip, huFAP as ligand by amine coupling (500 RU), construct as analyte, 1:1 global fit

T1 sequence (Q12884 27-760 limits assumed): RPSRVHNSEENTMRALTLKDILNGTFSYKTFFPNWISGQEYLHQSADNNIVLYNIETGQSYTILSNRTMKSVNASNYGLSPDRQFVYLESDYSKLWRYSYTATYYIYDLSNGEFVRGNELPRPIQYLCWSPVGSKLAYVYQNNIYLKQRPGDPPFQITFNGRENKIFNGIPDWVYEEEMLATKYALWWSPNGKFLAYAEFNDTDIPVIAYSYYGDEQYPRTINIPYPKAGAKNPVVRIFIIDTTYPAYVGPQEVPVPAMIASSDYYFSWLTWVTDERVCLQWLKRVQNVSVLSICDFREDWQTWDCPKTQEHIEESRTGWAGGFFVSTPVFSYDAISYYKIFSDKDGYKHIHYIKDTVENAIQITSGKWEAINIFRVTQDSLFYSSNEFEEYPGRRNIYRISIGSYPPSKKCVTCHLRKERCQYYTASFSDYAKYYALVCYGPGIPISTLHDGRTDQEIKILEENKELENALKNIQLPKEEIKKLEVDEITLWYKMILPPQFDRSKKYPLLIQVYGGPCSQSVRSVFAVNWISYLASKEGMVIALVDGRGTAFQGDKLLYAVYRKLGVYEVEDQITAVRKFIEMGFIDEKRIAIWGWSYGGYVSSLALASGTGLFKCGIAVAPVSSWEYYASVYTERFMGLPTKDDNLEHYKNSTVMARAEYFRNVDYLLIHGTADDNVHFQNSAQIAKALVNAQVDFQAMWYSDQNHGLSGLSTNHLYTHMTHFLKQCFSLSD

B1: 4G8 IgG (unmodified anti-FAP antibody) (antibody, V domains shown)
VH: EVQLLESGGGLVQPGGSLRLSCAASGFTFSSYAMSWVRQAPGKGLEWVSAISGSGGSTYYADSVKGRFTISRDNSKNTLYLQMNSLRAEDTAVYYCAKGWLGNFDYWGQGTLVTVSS
VL: EIVLTQSPGTLSLSPGERATLSCRASQSVSRSYLAWYQQKPGQAPRLLIIGASTRATGIPDRFSGSGSGTDFTLTISRLEPEDFAVYYCQQGQVIPPTFGQGTKVEIK
Kd [1]: 0.05 nM

B2: 28H1 IgG (unmodified anti-FAP antibody) (antibody, V domains shown)
VH: EVQLLESGGGLVQPGGSLRLSCAASGFTFSSHAMSWVRQAPGKGLEWVSAIWASGEQYYADSVKGRFTISRDNSKNTLYLQMNSLRAEDTAVYYCAKGWLGNFDYWGQGTLVTVSS
VL: B1 VL
notes: Corresponding unmodified IgG of the 28H1 immunoconjugate
Kd [1]: 0.2 nM

B3: TNC A2-targeted 2B10-based IgG-IL-10 immunoconjugate with monomeric IL-10 (IL-10M1) (other)
heavy 1: EIVLTQSPGTLSLSPGERATLSCRASQSVSRSYLAWYQQKPGQAPRLLIIGASTRATGIPDRFSGSGSGTDFTLTISRLEPEDFAVYYCQQGQVIPPTFGQGTKVEIKRTVAAPSVFIFPPSDEQLKSGTASVVCLLNNFYPREAKVQWKVDNALQSGNSQESVTEQDSKDSTYSLSSTLTLSKADYEKHKVYACEVTHQGLSSPVTKSFNRGEC
heavy 2: B3 heavy 1 with R31S, I50Y, T54S, V94Y, I95T
light: B3 heavy 1 with R31S, S32N, I50Y, S53Y, T54I
notes: P329G LALA in the Fc; also called 2B10 IgG-IL-10M1; TNCA2 2B10 IgG-IL-10M1
Kd [2]: 0.052 nM
koff [2]: 9.35e-05 s⁻¹
kon [2]: 1.8e+06 M⁻¹ s⁻¹

B4: FAP-targeted 4G8-based IgG-IL-10 immunoconjugate with monomeric IL-10 (IL-10M1) (other)
heavy 1: not shown
heavy 2: not shown
light: EVQLLESGGGLVQPGGSLRLSCAASGFTFSRYGMSWVRQAPGKGLEWVSAISGSGGSTYYADSVKGRFTISRDNSKNTLYLQMNSLRAEDTAVYYCAKAHNAFDYWGQGTLVTVSSASTKGPSVFPLAPSSKSTSGGTAALGCLVKDYFPEPVTVSWNSGALTSGVHTFPAVLQSSGLYSLSSVVTVPSSSLGTQTYICNVNHKPSNTKVDKKVEPKSCDSSSSGSSSSGSSSSGAPASSSTKKTQLQLEHLLLDLQMILNGINNYKNPKLTRMLTAKFAMPKKATELKHLQCLEEELKPLEEVLNGAQSKNFHLRPRDLISNINVIVLELKGSETTFMCEYADETATIVEFLNRWITFAQSIISTLTSGGGGSGGGGSGGGGEVQLLESGGGLVQPGGSLRLSCAASGFTFSRYGMSWVRQAPGKGLEWVSAISGSGGSTYYADSVKGRFTISRDNSKNTLYLQMNSLRAEDTAVYYCAKAHNAFDYWGQGTLVTVSSASTKGPSVFPLAPSSKSTSGGTAALGCLVKDYFPEPVTVSWNSGALTSGVHTFPAVLQSSGLYSLSSVVTVPSSSLGTQTYICNVNHKPSNTKVDKKVEPKSCD
notes: P329G LALA in the Fc; also called 4G8 IgG-IL-10M1; FAP 4G8 IgG-IL-10M1
Kd [3]: 0.026 nM
koff [3]: 1.75e-05 s⁻¹
kon [3]: 668000 M⁻¹ s⁻¹
